The sequences below were run on Escherichia coli TOP10 (assay: shrunken log2 fold change of peptide-encoding DNA abundance (4.5 h post-induction vs induction); higher = less antimicrobial activity (less host growth inhibition)). Settings: time post-induction: 4.5 h; library: site-saturation at positions 5, 18, 19, 20.
For RRIRTRPPRLPRPRPRPNYIPRP, the “shrunken log2 fold change” value was -0.74. RRIRHRPPRLPRPRPRPKTYPRP was tested, and the “shrunken log2 fold change” value was -1.51. For RRIRRRPPRLPRPRPRPFFDPRP, the “shrunken log2 fold change” value was 0.296. For RRIRNRPPRLPRPRPRPCFFPRP, the “shrunken log2 fold change” value was -0.489. In the case of RRIRDRPPRLPRPRPRPAEIPRP, the “shrunken log2 fold change” value is reported as 0.184. RRIRLRPPRLPRPRPRPCIQPRP was tested, and the “shrunken log2 fold change” value was -0.675. In the case of RRIRYRPPRLPRPRPRPCTCPRP, the “shrunken log2 fold change” value is reported as 0.0744. With RRIRKRPPRLPRPRPRPGWNPRP the “shrunken log2 fold change” value was 0.106. For RRIRNRPPRLPRPRPRPITFPRP, the “shrunken log2 fold change” value was -0.0674. In the case of RRIRYRPPRLPRPRPRPLSYPRP, the “shrunken log2 fold change” value is reported as -0.273. In the case of RRIRERPPRLPRPRPRPIAQPRP, the “shrunken log2 fold change” value is reported as -0.0491. RRIRIRPPRLPRPRPRPYAYPRP was tested, and the “shrunken log2 fold change” value was -0.0284. In the case of RRIRERPPRLPRPRPRPSNMPRP, the “shrunken log2 fold change” value is reported as -0.683. In the case of RRIRGRPPRLPRPRPRPYDDPRP, the “shrunken log2 fold change” value is reported as -0.199. For RRIRDRPPRLPRPRPRPEMYPRP, the “shrunken log2 fold change” value was 0.363. For RRIRLRPPRLPRPRPRPDWLPRP, the “shrunken log2 fold change” value was 0.318. RRIRKRPPRLPRPRPRPQREPRP was tested, and the “shrunken log2 fold change” value was 0.749. In the case of RRIRERPPRLPRPRPRPQRIPRP, the “shrunken log2 fold change” value is reported as -0.0866. For RRIRRRPPRLPRPRPRPFIQPRP, the “shrunken log2 fold change” value was -0.0404. For RRIRDRPPRLPRPRPRPKWWPRP, the “shrunken log2 fold change” value was 0.00489. For RRIRVRPPRLPRPRPRPDPWPRP, the “shrunken log2 fold change” value was 0.131. For RRIRCRPPRLPRPRPRPMAGPRP, the “shrunken log2 fold change” value was -0.0712. In the case of RRIRLRPPRLPRPRPRPKCDPRP, the “shrunken log2 fold change” value is reported as -0.461. With RRIRPRPPRLPRPRPRPFAIPRP the “shrunken log2 fold change” value was -0.232. RRIRQRPPRLPRPRPRPGENPRP was tested, and the “shrunken log2 fold change” value was -0.0193. For RRIRNRPPRLPRPRPRPKIHPRP, the “shrunken log2 fold change” value was -0.719. With RRIRHRPPRLPRPRPRPADSPRP the “shrunken log2 fold change” value was -0.039. RRIRRRPPRLPRPRPRPRFTPRP was tested, and the “shrunken log2 fold change” value was 0.264. RRIRERPPRLPRPRPRPHYVPRP was tested, and the “shrunken log2 fold change” value was -0.0222. RRIRYRPPRLPRPRPRPHAEPRP was tested, and the “shrunken log2 fold change” value was -0.144. For RRIRERPPRLPRPRPRPEECPRP, the “shrunken log2 fold change” value was -0.000921. For RRIRQRPPRLPRPRPRPRDFPRP, the “shrunken log2 fold change” value was 0.984. RRIRGRPPRLPRPRPRPENDPRP was tested, and the “shrunken log2 fold change” value was 1.74. In the case of RRIRTRPPRLPRPRPRPLAKPRP, the “shrunken log2 fold change” value is reported as 0.0419. With RRIRNRPPRLPRPRPRPMHDPRP the “shrunken log2 fold change” value was -0.117. RRIRMRPPRLPRPRPRPAGYPRP was tested, and the “shrunken log2 fold change” value was 0.572. RRIRIRPPRLPRPRPRPQTHPRP was tested, and the “shrunken log2 fold change” value was -0.412. RRIRYRPPRLPRPRPRPELYPRP was tested, and the “shrunken log2 fold change” value was -0.106. In the case of RRIRERPPRLPRPRPRPKCEPRP, the “shrunken log2 fold change” value is reported as 0.0279. For RRIRKRPPRLPRPRPRPDKKPRP, the “shrunken log2 fold change” value was -0.117. For RRIRMRPPRLPRPRPRPHNSPRP, the “shrunken log2 fold change” value was -0.171. With RRIRNRPPRLPRPRPRPGYTPRP the “shrunken log2 fold change” value was -0.501. With RRIRARPPRLPRPRPRPKCCPRP the “shrunken log2 fold change” value was 0.165. In the case of RRIRWRPPRLPRPRPRPENCPRP, the “shrunken log2 fold change” value is reported as 0.138. With RRIRKRPPRLPRPRPRPEMAPRP the “shrunken log2 fold change” value was 1.73. With RRIRFRPPRLPRPRPRPIRWPRP the “shrunken log2 fold change” value was 0.0239. With RRIRSRPPRLPRPRPRPYLTPRP the “shrunken log2 fold change” value was -0.429. RRIRCRPPRLPRPRPRPMHVPRP was tested, and the “shrunken log2 fold change” value was 0.0371. For RRIRLRPPRLPRPRPRPPVSPRP, the “shrunken log2 fold change” value was 0.11. RRIRFRPPRLPRPRPRPRTYPRP was tested, and the “shrunken log2 fold change” value was -0.794. RRIRDRPPRLPRPRPRPDNRPRP was tested, and the “shrunken log2 fold change” value was 0.147. In the case of RRIRNRPPRLPRPRPRPHNLPRP, the “shrunken log2 fold change” value is reported as -0.272. RRIRRRPPRLPRPRPRPLDTPRP was tested, and the “shrunken log2 fold change” value was 0.168. In the case of RRIRFRPPRLPRPRPRPKMIPRP, the “shrunken log2 fold change” value is reported as -0.618. For RRIRDRPPRLPRPRPRPCPLPRP, the “shrunken log2 fold change” value was -0.0882. In the case of RRIRSRPPRLPRPRPRPQLKPRP, the “shrunken log2 fold change” value is reported as 0.0348. In the case of RRIRARPPRLPRPRPRPYHQPRP, the “shrunken log2 fold change” value is reported as -0.885. In the case of RRIRSRPPRLPRPRPRPRDRPRP, the “shrunken log2 fold change” value is reported as 0.271. RRIRMRPPRLPRPRPRPAQWPRP was tested, and the “shrunken log2 fold change” value was 0.533. In the case of RRIRLRPPRLPRPRPRPYLLPRP, the “shrunken log2 fold change” value is reported as -0.248. In the case of RRIRIRPPRLPRPRPRPAQNPRP, the “shrunken log2 fold change” value is reported as -0.0711. With RRIRNRPPRLPRPRPRPEGLPRP the “shrunken log2 fold change” value was 0.364. RRIRFRPPRLPRPRPRPHWLPRP was tested, and the “shrunken log2 fold change” value was -0.066. For RRIRVRPPRLPRPRPRPSNNPRP, the “shrunken log2 fold change” value was -0.662. For RRIRSRPPRLPRPRPRPHRSPRP, the “shrunken log2 fold change” value was -0.188. In the case of RRIRARPPRLPRPRPRPGQRPRP, the “shrunken log2 fold change” value is reported as 0.107. With RRIRRRPPRLPRPRPRPSEGPRP the “shrunken log2 fold change” value was 0.163. RRIRLRPPRLPRPRPRPTSQPRP was tested, and the “shrunken log2 fold change” value was -0.145. RRIRGRPPRLPRPRPRPYSFPRP was tested, and the “shrunken log2 fold change” value was 0.0271. With RRIRCRPPRLPRPRPRPLLCPRP the “shrunken log2 fold change” value was -0.163. RRIRERPPRLPRPRPRPGKNPRP was tested, and the “shrunken log2 fold change” value was -0.212. For RRIRYRPPRLPRPRPRPTLSPRP, the “shrunken log2 fold change” value was -0.0535. RRIRFRPPRLPRPRPRPYPQPRP was tested, and the “shrunken log2 fold change” value was -0.356. With RRIRDRPPRLPRPRPRPIYVPRP the “shrunken log2 fold change” value was -0.0326. With RRIRLRPPRLPRPRPRPKEDPRP the “shrunken log2 fold change” value was -0.184.
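Note: peptides expressed intracellularly from a pBAD plasmid library in pooled LB shake-flask culture, induced with 0.3% L-arabinose, DNA abundance read by NGS, three biological replicates, DESeq2 with apeglm shrinkage.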
